Assay results: patent publication US20230374153A1 (PARADIGM IMMUNOTERAPEUTICS, published 2023)

Assays:
[1] = molecular target: T1, FcRn (neonatal Fc receptor) (UniProt P55899 24-297; P61769 21-119); assay: SPR (Biacore, ACRO Biosystems), pH 6.0
T1 construct: also called FCGRT; purified FcRn receptor

[2] = molecular target: T1, FcRn (neonatal Fc receptor)

T1 sequence (P55899 24-297 limits assumed, chain 1 of 2): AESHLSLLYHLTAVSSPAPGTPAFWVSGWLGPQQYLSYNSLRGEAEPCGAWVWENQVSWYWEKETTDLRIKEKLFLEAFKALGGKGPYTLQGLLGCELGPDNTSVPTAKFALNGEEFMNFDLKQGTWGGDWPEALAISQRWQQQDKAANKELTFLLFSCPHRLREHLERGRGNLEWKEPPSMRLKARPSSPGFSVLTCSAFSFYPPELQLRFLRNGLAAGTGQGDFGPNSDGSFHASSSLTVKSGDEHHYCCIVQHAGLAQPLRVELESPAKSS
T1 sequence (P61769 21-119 limits assumed, chain 2 of 2): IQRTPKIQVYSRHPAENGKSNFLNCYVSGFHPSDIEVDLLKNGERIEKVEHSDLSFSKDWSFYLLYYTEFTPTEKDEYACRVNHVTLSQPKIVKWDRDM

| Binder | Kd [1] [µM] | koff [2] [s⁻¹] | kon [2] [M⁻¹ s⁻¹] |
| --- | --- | --- | --- |
| ACE2 LVE IgG Fc STR chimeric antibody (LiVE) (Fc fusion) QSTIEEQAKLFLDKFNVEAEDLFYQSSLASWNYNTNITEENVQNMNNAGDKWSAFLKEQSTLAQMYPLQEIQELTVKLQLQALQQNGSSVLSEDKSKRLNTILNTMSTIYSTGKVCNPDNPQECLLLEPGLNEIMANSLDYNERLWAWESWRSEVGKQLRPLYEEYVVLKNEMARANHYEDYGDYWRGDYEVNGVDGYDYSRGQLIEDVEHTFEEIKPLYEHLHAYVRAKLMNAYPSYISPIGCLPAHLLGDMWGRFWTNLYSLTVPFGQKPNIDVTDAMVDQAWDAQRIFKEAEKFFVSVGLPNMTQGFWENSMLTDPGNVQKAVCHPTAWDLGKGDFRILMCTKVTMDDFLTAHHEMGHIQYDMAYAAQPFLLRNGANEGFHEAVGEIMSLSAATPKHLKSIGLLSPDFQEDNETEINFLLKQALTIVGTLPFTYMLEKWRWMVFKGEIPKDQWMKKWWEMKREIVGVVEPVPHDETYCDPASLFHVSNDYSFIRYYTRTLYQFQFQEALCQAAKHEGPLHKCDISNSTEAGQKLFNMLRLGKSEPWTLALENVVGAKNMNVRPLLNYFEPLFTWLKDQNKNSFVGWSTDWSPYADQSIKVRISLKSALGDKAYEWNDNEMYLFRSSVAYAMRQYFLKVKNQMILFGEEDVRVANLKPRISFNFFVTAPKNVSDIIPRTEVEKAIRMSRSRINDAFRLNDNSLEFLGIQPTLGPPNQPPVSGGGGSGGGGSDKTHTCPPCPAPESTRGPSVFLFPPKPKDTLMISRTPEVTCVVVDVSHEDPEVKFNWYVDGVEVHNAKTKPREEQYNSTYRVVSVLTVLHQDWLNGKEYKCKVSNKALPAPIEKTISKAKGQPREPQVYTLPPSRDELTKNQVSLTCLVKGFYPSDIAVEWESNGQPENNYKTTPPVLDSDGSFFLYSKLTVDKSRWQQGNVFSCSVMHEALHNHYTQKSLSLSPGK | 0.517 | – | – |
| ACE2 LVE IgG Fc STR YTE chimeric antibody (LiVE Longer) (Fc fusion) QSTIEEQAKLFLDKFNVEAEDLFYQSSLASWNYNTNITEENVQNMNNAGDKWSAFLKEQSTLAQMYPLQEIQELTVKLQLQALQQNGSSVLSEDKSKRLNTILNTMSTIYSTGKVCNPDNPQECLLLEPGLNEIMANSLDYNERLWAWESWRSEVGKQLRPLYEEYVVLKNEMARANHYEDYGDYWRGDYEVNGVDGYDYSRGQLIEDVEHTFEEIKPLYEHLHAYVRAKLMNAYPSYISPIGCLPAHLLGDMWGRFWTNLYSLTVPFGQKPNIDVTDAMVDQAWDAQRIFKEAEKFFVSVGLPNMTQGFWENSMLTDPGNVQKAVCHPTAWDLGKGDFRILMCTKVTMDDFLTAHHEMGHIQYDMAYAAQPFLLRNGANEGFHEAVGEIMSLSAATPKHLKSIGLLSPDFQEDNETEINFLLKQALTIVGTLPFTYMLEKWRWMVFKGEIPKDQWMKKWWEMKREIVGVVEPVPHDETYCDPASLFHVSNDYSFIRYYTRTLYQFQFQEALCQAAKHEGPLHKCDISNSTEAGQKLFNMLRLGKSEPWTLALENVVGAKNMNVRPLLNYFEPLFTWLKDQNKNSFVGWSTDWSPYADQSIKVRISLKSALGDKAYEWNDNEMYLFRSSVAYAMRQYFLKVKNQMILFGEEDVRVANLKPRISFNFFVTAPKNVSDIIPRTEVEKAIRMSRSRINDAFRLNDNSLEFLGIQPTLGPPNQPPVSGGGGSGGGGSDKTHTCPPCPAPESTRGPSVFLFPPKPKDTLYITREPEVTCVVVDVSHEDPEVKFNWYVDGVEVHNAKTKPREEQYNSTYRVVSVLTVLHQDWLNGKEYKCKVSNKALPAPIEKTISKAKGQPREPQVYTLPPSRDELTKNQVSLTCLVKGFYPSDIAVEWESNGQPENNYKTTPPVLDSDGSFFLYSKLTVDKSRWQQGNVFSCSVMHEALHNHYTQKSLSLSPGK | 0.0267 | 0.00412 | 155000 |
